Experiments:
[1] = target: T1, 可溶性ヒトgp130受容体 (soluble human gp130 receptor, extracellular region with six histidines, made in CHO DG44 cells) (human, UniProt P40189 23-619); experiment: ELISA, soluble gp130 coated on the plate, hybridoma supernatant, anti-mouse HRP
T1 construct: The stated range 1-619 begins at Met 1 and so holds the native signal peptide; also called 可溶性ヒトgp130受容体タンパク質; ヒトgp130受容体
T1 sequence: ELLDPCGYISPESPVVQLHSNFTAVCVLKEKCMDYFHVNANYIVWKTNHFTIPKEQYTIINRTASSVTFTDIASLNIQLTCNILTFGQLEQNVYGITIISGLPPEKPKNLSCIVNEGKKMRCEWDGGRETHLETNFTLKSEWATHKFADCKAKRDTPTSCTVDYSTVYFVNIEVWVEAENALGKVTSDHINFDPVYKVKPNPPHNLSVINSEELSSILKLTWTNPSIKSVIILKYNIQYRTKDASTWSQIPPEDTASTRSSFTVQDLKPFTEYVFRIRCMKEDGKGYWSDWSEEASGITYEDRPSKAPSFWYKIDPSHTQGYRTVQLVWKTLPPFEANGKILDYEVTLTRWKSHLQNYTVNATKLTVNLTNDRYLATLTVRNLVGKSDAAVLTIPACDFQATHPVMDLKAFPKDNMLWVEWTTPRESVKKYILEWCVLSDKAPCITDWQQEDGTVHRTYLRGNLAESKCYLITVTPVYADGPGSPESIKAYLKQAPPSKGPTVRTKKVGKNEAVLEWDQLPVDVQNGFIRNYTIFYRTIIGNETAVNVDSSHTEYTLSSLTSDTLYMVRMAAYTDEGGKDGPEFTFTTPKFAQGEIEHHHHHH

[2] = target: T1, 可溶性ヒトgp130受容体 (soluble human gp130 …); experiment: SPR (Biacore T200), gp130 amine-coupled on CM5 (235.2 RU), Fab as analyte
[3] = target: T1, 可溶性ヒトgp130受容体 (soluble human gp130 …); experiment: SPR (Biacore T200), gp130 amine-coupled on CM5 (376 RU), full-length IgG as analyte
[4] = target: T1, 可溶性ヒトgp130受容体 (soluble human gp130 …); experiment: SPR (Biacore T200), gp130 amine-coupled on CM5 (352 RU), Fab as analyte, 25 C

B1: 抗体A (mouse anti-human gp130 receptor monoclonal antibody from hybridoma) (antibody, mouse IgG1, kappa, V domains shown)
VH: EVLLQQSGPELVKPGASVKIPCKASGYTFTDYNMDWVKQSHGKSLEWIGDINSHSGGIIYNQKFKDKAILTVDKSSSTAYMELRSLTSEDTAVYYCARTYYVYGHFFDYWGQGTTLTVSS
VL: QSVLTQSPAFISASPGEKVTMTCNVSSSVTSMYWYQQKPGSSPKPWIYLTSNLASGVPPRFSGSGSGTSYSLTISSLEAEDAATYYCQQWSTNPLTFGAGTKLELKR
notes: also called マウス抗体A; antibody A
binding result [1]: binds

B2: hAH1hAL1 (humanized Fab, VH SEQ ID NO 25, VL SEQ ID NO 76, from pUC-Fab-hAH1hAL1) (Fab, V domains shown)
VH: QVQLQQPGAELVQPGTSVRLSCKASGYTFTDYNMDWVKQRPGQGLEWIGDINSHSGGIIYNQKFKDKATLTVDKSSSTAYMQLSSLTSEDSAVYYCARTYYVYGHFFDYWGQGTLVTVSA
VL: DIQMTQSPSSLSASVGDRVTITCNVSSSVTSMYWYQQKQGKSPQLLVYLTSNLASGVPARFSGSGSGTEFTLTISSLQPDDFATYYCQQWSTNPLTFGAGTKLDLKR
Kd [2]: 0.218 nM | koff [2]: 5.6e-05 s⁻¹ | kon [2]: 257000 M⁻¹ s⁻¹

B3: hAH1hAL2 (humanized Fab, VH SEQ ID NO 25, VL SEQ ID NO 77, from pUC-Fab-hAH1hAL2) (Fab, V domains shown)
VH: B2 VH
VL: ELVLTQSPGTLSLSAGERATLSCNVSSSVTSMYWYQQKPGKAPKLLIYLTSNLASGVPSRFSGSGSGTQFSLKINNLQPEDFGSYYCQQWSTNPLTFGAGTKLDLKR
Kd [2]: 0.594 nM | koff [2]: 7.05e-05 s⁻¹ | kon [2]: 119000 M⁻¹ s⁻¹

B4: hAH1hAL3 (full-length humanized anti-gp130 receptor antibody, H chain hAH1, L chain hAL3, made in CHO DG44 cells) (antibody, human IgG1, kappa, V domains shown)
VH: B2 VH
VL: DIQMTQSPSSLSASVGDRVTITCNVSSSVTSMYWFQQRPGQAPKVLIYLTSNLASGVPSRFSGSGSGTEFTLTISSLQPDDFATYYCQQWSTNPLTFGQGTKVEIKR
notes: Human IgG1, kappa constant regions; also called ヒト化抗体hAH1hAL3
Kd [3]: 0.585 nM | koff [3]: 7.25e-05 s⁻¹ | kon [3]: 124000 M⁻¹ s⁻¹

B5: 小型化マウス抗体A (Fab of mouse antibody A, from pUC-Fab-mAHmAL, E. coli) (Fab, V domains shown)
VH: B1 VH
VL: B1 VL
Kd [4]: 0.598 nM | koff [4]: 8.42e-05 s⁻¹ | kon [4]: 141000 M⁻¹ s⁻¹

B6: hAH1mAL (Fab: humanized VH hAH1 with the mouse L chain of antibody A, from pUC-Fab-hAH1mAL) (Fab, V domains shown)
VH: B2 VH
VL: B1 VL
Kd [4]: 0.46 nM | koff [4]: 8.21e-05 s⁻¹ | kon [4]: 178000 M⁻¹ s⁻¹

— patent JP2019147786A (dated 2019)
